# Measured values as given in PMC6627233 (The EMBO Journal, 2019).
# B1: GST-tagged RNF34 (natural protein)
# chain: MKAGATSMWASCCGLLNEVMGTGAVRGQQSAFAGATGPFRFTPNPEFSTYPPAATEGPNIVCKACGLSFSVFRKKHVCCDCKKDFCSVCSVLQENLRRCSTCHLLQETAFQRPQLMRLKVKDLRQYLILRNIPIDTCREKEDLVDLVLCHHGLGSEDDMDTSSLNSSRSQTSSFFTRSFFSNYTAPSATMSSFQGELMDGDQTSRSGVPAQVQSEITSANTEDDDDDDDEDDDDEEENAEDRNPGLSKERVRASLSDLSSLDDVEGMSVRQLKEILARNFVNYSGCCEKWELVEKVNRLYKENEENQKSYGERLQLQDEEDDSLCRICMDAVIDCVLLECGHMVTCTKCGKRMSECPICRQYVVRAVHVFKS
# Target: Flag-tagged MAVS (UniProt Q7Z434 1-540)
# Assay: far-Western, overlay or dot blot
# Chain of Flag-tagged MAVS (Q7Z434 whole entry): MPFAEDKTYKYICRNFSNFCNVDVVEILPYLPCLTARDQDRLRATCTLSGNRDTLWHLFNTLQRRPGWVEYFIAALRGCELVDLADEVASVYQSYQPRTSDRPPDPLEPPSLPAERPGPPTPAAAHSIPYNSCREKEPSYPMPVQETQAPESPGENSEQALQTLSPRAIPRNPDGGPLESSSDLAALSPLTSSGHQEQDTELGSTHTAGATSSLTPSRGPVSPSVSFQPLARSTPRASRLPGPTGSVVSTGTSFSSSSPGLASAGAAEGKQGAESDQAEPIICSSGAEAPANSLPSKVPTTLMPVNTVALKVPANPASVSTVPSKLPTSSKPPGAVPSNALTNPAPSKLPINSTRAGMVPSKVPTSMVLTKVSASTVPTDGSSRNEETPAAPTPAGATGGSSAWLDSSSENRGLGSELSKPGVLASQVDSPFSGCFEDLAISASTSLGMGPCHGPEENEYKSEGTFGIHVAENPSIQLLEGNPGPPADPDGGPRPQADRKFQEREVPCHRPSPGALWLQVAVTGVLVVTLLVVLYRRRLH
binder,measurement,value
B1,binding result,binds
